# Source: FireProtDB
# Several values for one entry are separate records, joined by “and”; a condition that tells them apart may be missing. Equal entries are not always repeated.
# B1: Alpha-lactalbumin, P00711 (parent)
# chain: MMSFVSLLLVGILFHATQAEQLTKCEVFRELKDLKGYGGVSLPEWVCTTFHTSGYDTQAIVQNNDSTEYGLFQINNKIWCKDDQNPHSSNICNISCDKFLDDDLTDDIMCVKKILDKVGINYWLAHKALCSEKLDQWLCEKL
# B2: NADP-dependent isopropanol dehydrogenase, P25984 (parent)
# chain: MKGFAMLGINKLGWIEKERPVAGSYDAIVRPLAVSPCTSDIHTVFEGALGDRKNMILGHEAVGEVVEVGSEVKDFKPGDRVIVPCTTPDWRSLEVQAGFQQHSNGMLAGWKFSNFKDGVFGEYFHVNDADMNLAILPKDMPLENAVMITDMMTTGFHGAELADIQMGSSVVVIGIGAVGLMGIAGAKLRGAGRIIGVGSRPICVEAAKFYGATDILNYKNGHIVDQVMKLTNGKGVDRVIMAGGGSETLSQAVSMVKPGGIISNINYHGSGDALLIPRVEWGCGMAHKTIKGGLCPGGRLRAEMLRDMVVYNRVDLSKLVTHVYHGFDHIEEALLLMKDKPKDLIKAVVIL
# B3: N154D|K396R, Q8GB52 (parent)
# chain: MLKKVLSCCIAATFGIYSASSLAQSSVINSTENSQQPIAPLVLASSDDAITDRYIVVLKQPQMLMNDAAGLQQFTQQTVGLMANSFSIKTDDVFDSSIIGFVANLDALQLKQLRRDSRVEYIEQDQILSIDPVVSNEAVQSNAIWGLDRIDQRNLPLDRNYNANFDGFGVTAYVIDTGVNNNHEEFGGRSVSGYDFVDNDADSSDCNGHGTHVAGTIGGSQYGVAKNVNIVGVRVLSCSGSGTTSGVISGVDWVAQNASGPSVANMSLGGGQSTALDSAVQGAIQSGVSFMLAAGNSNADACNTSPARVPSGVTVGSTTSSDSRSSFSNWGSCVDLFAPGSQIKSAWYDGGYKTISGTSMATPHVAGVAALYLQENNGLTPLQLTGLLNSRASENKVSDTRGTTNKLLYSLADSGCEPDCGGPTPGPDPDGKLVSGVPVNGLSGSRGQKDYFYMDLQQGQQLTVVTIGGTGDADLYLRFGDKPTLNTWDCRPYRSGNSETCTVNVTQSGRYHVMLNAYSAYSGLTLQANF
# B4: Membrane-associated guanylate kinase, WW and PDZ domain-containing protein 1, Q96QZ7 (parent)
# chain: MSKVIQKKNHWTSRVHECTVKRGPQGELGVTVLGGAEHGEFPYVGAVAAVEAAGLPGGGEGPRLGEGELLLEVQGVRVSGLPRYDVLGVIDSCKEAVTFKAVRQGGRLNKDLRHFLNQRFQKGSPDHELQQTIRDNLYRHAVPCTTRSPREGEVPGVDYNFLTVKEFLDLEQSGTLLEVGTYEGNYYGTPKPPSQPVSGKVITTDALHSLQSGSKQSTPKRTKSYNDMQNAGIVHAENEEEDDVPEMNSSFTADSGEQEEHTLQETALPPVNSSIIAAPITDPSQKFPQYLPLSAEDNLGPLPENWEMAYTENGEVYFIDHNTKTTSWLDPRCLNKQQKPLEECEDDEGVHTEELDSELELPAGWEKIEDPVYGIYYVDHINRKTQYENPVLEAKRKKQLEQQQQQQQQQQQQQQQQQQQQTEEWTEDHSALVPPVIPNHPPSNPEPAREVPLQGKPFFTRNPSELKGKFIHTKLRKSSRGFGFTVVGGDEPDEFLQIKSLVLDGPAALDGKMETGDVIVSVNDTCVLGHTHAQVVKIFQSIPIGASVDLELCRGYPLPFDPDDPNTSLVTSVAILDKEPIIVNGQETYDSPASHSSKTGKVNGMKDARPSSPADVASNSSHGYPNDTVSLASSIATQPELITVHIVKGPMGFGFTIADSPGGGGQRVKQIVDSPRCRGLKEGDLIVEVNKKNVQALTHNQVVDMLVECPKGSEVTLLVQRGGLPVPKKSPKSQPLERKDSQNSSQHSVSSHRSLHTASPSHSTQVLPEFPPAEAQAPDQTDSSGQKKPDPFKIWAQSRSMYENRPMSPSPASGLSKGEREREINSTNFGECPIPDYQEQDIFLWRKETGFGFRILGGNEPGEPIYIGHIVPLGAADTDGRLRSGDELICVDGTPVIGKSHQLVVQLMQQAAKQGHVNLTVRRKVVFAVPKTENEVPSPASSHHSSNQPASLTEEKRTPQGSQNSLNTVSSGSGSTSGIGSGGGGGSGVVSTVVQPYDVEIRRGENEGFGFVIVSSVSRPEAGTTFAGNACVAMPHKIGRIIEGSPADRCGKLKVGDRILAVNGCSITNKSHSDIVNLIKEAGNTVTLRIIPGDESSNATLLTNAEKIATITTTHTPSQQGTQETRNTTKPKQESQFEFKAPQATQEQDFYTVELERGAKGFGFSLRGGREYNMDLYVLRLAEDGPAERCGKMRIGDEILEINGETTKNMKHSRAIELIKNGGRRVRLFLKRGDGSVPEYDPSSDRHGPATGPQGVPEVRAGPDRRQHPSLESSYPPDLHKSSPHGEKRAHARDPKGSREYSRQPNEHHTWNGTSRKPDSGACRPKDRAPEGRRDAQAERAAAANGPKRRSPEKRREGTRSADNTLERREKHEKRRDVSPERRRERSPTRRRDGSPSRRRRSLERLLEQRRSPERRRGGSPERRAKSTDRRRARSPERRRERSLDKRNREDRASHREREEANLKQDAGRSSRHPPEQRRRPYKECSTDLSI
# B5: Osteomodulin, Q99983 (parent)
# chain: MGFLSPIYVIFFFFGVKVHCQYETYQWDEDYDQEPDDDYQTGFPFRQNVDYGVPFHQYTLGCVSECFCPTNFPSSMYCDNRKLKTIPNIPMHIQQLYLQFNEIEAVTANSFINATHLKEINLSHNKIKSQKIDYGVFAKLPNLLQLHLEHNNLEEFPFPLPKSLERLLLGYNEISKLQTNAMDGLVNLTMLDLCYNYLHDSLLKDKIFAKMEKLMQLNLCSNRLESMPPGLPSSLMYLSLENNSISSIPEKYFDKLPKLHTLRMSHNKLQDIPYNIFNLPNIVELSVGHNKLKQAFYIPRNLEHLYLQNNEIEKMNLTVMCPSIDPLHYHHLTYIRVDQNKLKEPISSYIFFCFPHIHTIYYGEQRSTNGQTIQLKTQVFRRFPDDDDESEDHDDPDNAHESPEQEGAEGHFDLHYYENQE
# B6: Copper-transporting ATPase 2, P35670 (parent)
# chain: MPEQERQITAREGASRKILSKLSLPTRAWEPAMKKSFAFDNVGYEGGLDGLGPSSQVATSTVRILGMTCQSCVKSIEDRISNLKGIISMKVSLEQGSATVKYVPSVVCLQQVCHQIGDMGFEASIAEGKAASWPSRSLPAQEAVVKLRVEGMTCQSCVSSIEGKVRKLQGVVRVKVSLSNQEAVITYQPYLIQPEDLRDHVNDMGFEAAIKSKVAPLSLGPIDIERLQSTNPKRPLSSANQNFNNSETLGHQGSHVVTLQLRIDGMHCKSCVLNIEENIGQLLGVQSIQVSLENKTAQVKYDPSCTSPVALQRAIEALPPGNFKVSLPDGAEGSGTDHRSSSSHSPGSPPRNQVQGTCSTTLIAIAGMTCASCVHSIEGMISQLEGVQQISVSLAEGTATVLYNPSVISPEELRAAIEDMGFEASVVSESCSTNPLGNHSAGNSMVQTTDGTPTSVQEVAPHTGRLPANHAPDILAKSPQSTRAVAPQKCFLQIKGMTCASCVSNIERNLQKEAGVLSVLVALMAGKAEIKYDPEVIQPLEIAQFIQDLGFEAAVMEDYAGSDGNIELTITGMTCASCVHNIESKLTRTNGITYASVALATSKALVKFDPEIIGPRDIIKIIEEIGFHASLAQRNPNAHHLDHKMEIKQWKKSFLCSLVFGIPVMALMIYMLIPSNEPHQSMVLDHNIIPGLSILNLIFFILCTFVQLLGGWYFYVQAYKSLRHRSANMDVLIVLATSIAYVYSLVILVVAVAEKAERSPVTFFDTPPMLFVFIALGRWLEHLAKSKTSEALAKLMSLQATEATVVTLGEDNLIIREEQVPMELVQRGDIVKVVPGGKFPVDGKVLEGNTMADESLITGEAMPVTKKPGSTVIAGSINAHGSVLIKATHVGNDTTLAQIVKLVEEAQMSKAPIQQLADRFSGYFVPFIIIMSTLTLVVWIVIGFIDFGVVQRYFPNPNKHISQTEVIIRFAFQTSITVLCIACPCSLGLATPTAVMVGTGVAAQNGILIKGGKPLEMAHKIKTVMFDKTGTITHGVPRVMRVLLLGDVATLPLRKVLAVVGTAEASSEHPLGVAVTKYCKEELGTETLGYCTDFQAVPGCGIGCKVSNVEGILAHSERPLSAPASHLNEAGSLPAEKDAVPQTFSVLIGNREWLRRNGLTISSDVSDAMTDHEMKGQTAILVAIDGVLCGMIAIADAVKQEAALAVHTLQSMGVDVVLITGDNRKTARAIATQVGINKVFAEVLPSHKVAKVQELQNKGKKVAMVGDGVNDSPALAQADMGVAIGTGTDVAIEAADVVLIRNDLLDVVASIHLSKRTVRRIRINLVLALIYNLVGIPIAAGVFMPIGIVLQPWMGSAAMAASSVSVVLSSLQLKCYKKPDLERYEAQAHGHMKPLTASQVSVHIGMDDRWRDSPRATPWDQVSYVSQVSLSSLTSDKPSRHSAAADDDGDKWSLLLNGRDEEQYI
# B7: V92L, O26594 (parent)
# chain: MRCAFMKKYILIVMLALMVAGCVSEDGNYTYNEGVQDSNVDNPVNDSWTSDSQDKVNDTAEKKSSYEASGSCYHVVDGDTIDVEGVGRIRLVGVNTPERGQPGYREAKDFVKSMCLGRTVQLDIDDAKRHDRYGRVLAVVYVDGVNLNRELLRRGYAEVMYIPPSEFNPYGWT
# B8: Persulfide dioxygenase ETHE1, mitochondrial, O95571 (parent)
# chain: MAEAVLRVARRQLSQRGGSGAPILLRQMFEPVSCTFTYLLGDRESREAVLIDPVLETAPRDAQLIKELGLRLLYAVNTHCHADHITGSGLLRSLLPGCQSVISRLSGAQADLHIEDGDSIRFGRFALETRASPGHTPGCVTFVLNDHSMAFTGDALLIRGCGRTDFQQGCAKTLYHSVHEKIFTLPGDCLIYPAHDYHGFTVSTVEEERTLNPRLTLSCEEFVKIMGNLNLPKPQQIDFAVPANMRCGVQTPTA
# Variants of: B1
# Conditions: Bos taurus; pH 8; Thermal; Fluorescence; HEPES 10 mM; CaCl2 1 mM; structure 1HFZ; whole UniProt chain shown
Variant,Tm [°C],"change of melting temperature, mutant - wild type (higher = more stable) [°C]"
D106N,31.4,6.8

# Variants of: B2
# Conditions: Clostridium beijerinckii; pH 6.8; Thermal; CD; Na/K phosphate 50 mM; structure 1KEV; whole UniProt chain shown
Variant,Tm [°C],"change of melting temperature, mutant - wild type (higher = more stable) [°C]"
Q165E M304R,70.4,5.3
V224E S254K Q165E M304R,73.7,8.6
V224E S254K,70.5,5.4
V224E S254K Q165E M304R R238A,73.6,8.5

# Variants of: B3
# Conditions: Vibrio sp. PA-44; pH 8.6; Thermal; CD; Glycine 25 mM; NaCl and CaCl2 100 mM and 15 mM; structure 1SH7; whole UniProt chain shown
Variant,Tm,"change of melting temperature, mutant - wild type (higher = more stable)"
N154D K396R,65.1 °C,1.5 °C
N154D,66.3 °C and 68.2 °C,2.7 °C and 3.1 °C

# Variants of: B4
# Conditions: Homo sapiens; pH 7; Thermal; CD; Tris-HCl 20 mM; NaCl 100 mM; structure 2ZAJ; whole UniProt chain shown
Variant,unfolding enthalpy (calorimetric),unfolding enthalpy (van 't Hoff)
D370S,14.4 kcal/mol and 9.15 kcal/mol,9.37 kcal/mol and 9.15 kcal/mol

# Variants of: B5
# Conditions: Homo sapiens; pH 7.4; Thermal; DSC; PBS; transition: 2; structure 5YQ5; whole UniProt chain shown
row,Variant,Tm [°C]
1,D254R,37
2,E303R,43.3
3,N278R,38.5
4,E225R,41.8
5,E284R E303R,43.8
6,E173R,42.3
7,E284R,42.3

# Variants of: B6
# Conditions: Homo sapiens; pH 7; 20 °C; Urea; CD; NaH2PO4 50 mM; transition: 2; reversible: No; structure 2ARF; whole UniProt chain shown
Variant,ddG of mutation (higher = less stable) [kcal/mol],denaturant midpoint (higher = more stable),unfolding free energy
H1069Q,0.96,4.7 M and 4 M,5.74 kcal/mol and 6.21 kcal/mol

# Variants of: B7
# Conditions: Methanothermobacter thermautotrophicus (strain ATCC 29096 / DSM 1053 / JCM 10044 / NBRC 100330 / Delta H); pH 7; 20 °C; GdnHCl; Fluorescence; Sodium phosphate sodium chloride 25 mM 100 mM; whole UniProt chain shown
Variant,ddG of mutation (higher = less stable) [kcal/mol],denaturant m value [kcal/mol/M],denaturant midpoint (higher = more stable) [M],unfolding free energy [kcal/mol]
V92L,1.1,1.03,0.2,1.3

# Variants of: B8
# Conditions: Homo sapiens; pH 7.5; Thermal; CD; Tris-HCl 50mM; NaCl 150mM; transition: 2; structure 4CHL; whole UniProt chain shown
Variant,Tm [°C],"change of melting temperature, mutant - wild type (higher = more stable) [°C]"
R163W,52,-10
R163Q,55,-7
